Tested on: MS2 coat protein
Assay: apparent KD of MS2 coat protein; designed switch direction (-1 OFF switch, 1 ON switch): -1; higher = weaker reporter binding
Summary of the method: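 Designed RNA switches with common flanks were transcribed on Illumina chips by stalled E. coli RNA polymerase and titrated with SNAP-549-labelled MS2 coat protein, from 0.7 or 1.5 nM doubling to 3 µM, in Tris-HCl pH 7.5 buffer with KCl, MgCl2, BSA, DTT, tRNA and Tween-20. Steps lasted 0.8–1.5 h (lowest) to 10–20 min (highest). Titrations ran without input, with 200 uM small-molecule ligand, or with an oligonucleotide input. Normalised cluster fluorescence was curve-fitted, and apparent KD is the per-design median over clusters.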

[1] = Eterna round: R95, input ligand: microRNA oligo, concentration not stated
[2] = input ligand: microRNA oligo, concentration not stated

Sequence | apparent KD of MS2 coat protein (input ligand: FMN 200 uM) | apparent KD of MS2 coat protein (input ligand: none) | apparent KD of MS2 coat protein [1] | apparent KD of MS2 coat protein [2]
GAAAACGUAGGAUAUUAAUACUUAUACAUGAGGAUCACCCAUGUUUGGUGGGUAAAAGAAUGAGAAGGGCGAUGAA [EX5 #9] (Eterna round: R97, puzzle: Exclusion 5) | 392 nM | 425 nM |  | 
ACUAGAUGAGGAUAUGCAUAUUUUCGUGUUCUUCUAGGUUAACAUGAGGAUCACCCAUGUAGAAGGCGUCUAUG [Exclusion 2 - 24] (puzzle: Exclusion 2) |  |  | 19.3 nM | 
AAUUAUUAUUGAGGAUAUCGUAUUGAAACAAUACGAGAAGGCGGAAUAAACAUGAGGAUCACCCAUGUGAGCCUGAUGCUUAUG [Ex NG1 #43] (Eterna round: R96, puzzle: Exclusion NG 1) |  |  |  | 21.1 nM
ACAAGCUCUGUGGGUGGUGACAUGAGGAUCACCCAUGUUUUGCUCGUCUUGUGCCGGGCCCGGCGCCCGGGCCCGGC [-40.5, -69.4, A 8%] (Eterna round: R97, puzzle: Sensor, turn-off variant 1) | 261 nM | 715 nM |  | 
AAAAGGCUAGGAUAUACAUGAGGAUCACCCAUGUGUACUGGACAUGCGGUAUGCGGAUGUAGAAGGAGUAUAAA [Esrere] (puzzle: Exclusion 3) |  |  | 22.4 nM | 
GCACGGAAUGUAGGAUAUUAGUGCGAUUAGCACUGAGAAGGACAUGAGGAUCACCCAUGUAACUCAAUAAUAAACCUUCCGUGC [Eli exng1 - 045] (Eterna round: R96, puzzle: Exclusion NG 1) | 11.2 nM | 12.2 nM |  | 8.85 nM
GCAAGGGAAGGAUAUACAUUACGACCGUCAUAGUACCUGCGACAUGAGGAUCACCCAUGUAGAAGGUCCAGCGG [EX2 C.13] (Eterna round: R97, puzzle: Exclusion 2) | 17.4 nM | 13.3 nM |  | 
ACAACAUGAGGAUCACCCAUGUGUGUUGUCCCAUGUGUGUAUAAGGAUAUAUGAAGGAAGGAGGAAUAGAAGGUAUAGAAGGAG [Am I even doing this right] (Eterna round: R96, puzzle: Exclusion NG 3) | 84.1 nM | 1200 nM |  | 9.25 nM
AUAUUAAUAUAGGAUAUCGAAUUUAUUAAUUAUCGAGAAGGAUAAACAUGAGGAUCACCCAUGUGGUAUCAUGG [Mat - Exclusion 6 - JL Mod - D39] (puzzle: Exclusion 6) |  |  | 256 nM | 
UUUUUGUCAGGAUAUGAGUAGUAGAACAAUAGUACUACUACUCAGAAGGGACAUGAGGAUCACCCAUGUUCCUC [Fiskers Ex 4 Super stable 44 mod 18] (puzzle: Exclusion 4) |  |  | 14.4 nM | 
UGAGAGAGUAUAGGAUAUUAGAGGAGAAUGGUGAUAGAGACAUGAGGAUCACCCAUGUGAGGAGAUAAGAAGGGUAAGAACUCA [AK ExNG2-V2-4] (Eterna round: R96, puzzle: Exclusion NG 2) | 452 nM | 435 nM |  | 292 nM
UUUUUAUAUGAAGGAUAUACUUAACAUGAGGAUCACCCAUGUGGUGUUGUGAGUGAGUGAGUUUAGUAGAAGGUCAACGAUUUU [JMF's solution 58] (Eterna round: R96, puzzle: Exclusion NG 2) | 810 nM | 421 nM |  | 322 nM
UUAAUUAAUAAUUAAGAUCAUUACAUGAGGAUCACCCAUGUCGAGGAUAUCAGCUCGAUUAGAGCUGAGAAGGCGACAAAUUAU [ExNG3/13-B1] (Eterna round: R96, puzzle: Exclusion NG 3) | 1060 nM | 579 nM |  | 644 nM
AAAGAUCAAGGAUAUGCAACGGCACACAUGAGGAUCACCCAUGUGAUGUACGUUGUGUCGGCAGAAGGUGAGGGUC [JR_Ex5_Sub056] (Eterna round: R97, puzzle: Exclusion 5) | 13.8 nM | 14.3 nM |  | 
UUGUUAUAUGUAGGAUAUGCGUAUUAUUAUUAGGCAGAAGGACAUGAGGAUCACCCAUGUAUGUUGUUGUUAUAUAUUAUAUAU [Title] (Eterna round: R96, puzzle: Exclusion NG 1) |  |  |  | 20.6 nM
